The values that follow come from PMC10237034 (Molecular Cell, 2023).

Some targets named below: histone H2B (X. laevis, UniProt P02281); histone H4 (X. laevis, UniProt P62799); TFIIH subunit XPB (human, UniProt P19447 1-782).
Holding throughout (assay): cryo-EM structure

Chain of TFIIH subunit XPB (P19447 whole entry): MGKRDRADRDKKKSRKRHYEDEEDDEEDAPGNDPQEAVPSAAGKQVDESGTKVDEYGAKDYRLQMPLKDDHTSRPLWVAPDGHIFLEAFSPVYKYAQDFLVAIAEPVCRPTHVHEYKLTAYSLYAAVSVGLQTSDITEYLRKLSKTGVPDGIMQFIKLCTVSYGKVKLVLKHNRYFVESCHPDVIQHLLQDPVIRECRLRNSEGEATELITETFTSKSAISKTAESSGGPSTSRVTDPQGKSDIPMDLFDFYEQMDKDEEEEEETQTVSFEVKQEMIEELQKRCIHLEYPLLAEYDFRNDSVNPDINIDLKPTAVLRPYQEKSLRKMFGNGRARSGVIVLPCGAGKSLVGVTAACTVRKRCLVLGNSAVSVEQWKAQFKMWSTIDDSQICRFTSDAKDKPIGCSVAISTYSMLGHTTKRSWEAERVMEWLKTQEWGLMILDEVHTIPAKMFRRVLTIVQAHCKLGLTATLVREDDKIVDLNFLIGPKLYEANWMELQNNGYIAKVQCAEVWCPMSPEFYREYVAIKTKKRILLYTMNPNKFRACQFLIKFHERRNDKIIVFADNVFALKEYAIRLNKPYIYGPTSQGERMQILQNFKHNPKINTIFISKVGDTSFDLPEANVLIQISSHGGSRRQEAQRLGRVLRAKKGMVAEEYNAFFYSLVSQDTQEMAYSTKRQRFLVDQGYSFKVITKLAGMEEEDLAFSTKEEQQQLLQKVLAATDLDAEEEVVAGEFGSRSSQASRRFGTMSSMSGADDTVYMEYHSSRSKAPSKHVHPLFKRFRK

B1: TFIIH subunit p8 (natural protein)
chain: MVNVLKGVLIECDPAMKQFLLYLDESNALGKKFIIQDIDDTHVFVIAELVNVLQERVGELMDQNAFSLTQK
In the case of B1, the binding result with histone H2B and with histone H4 was “binds” in each case.

B2: TFIIH subunit MAT1 (natural protein)
chain: MDDQGCPRCKTTKYRNPSLKLMVNVCGHTLCESCVDLLFVRGAGNCPECGTPLRKSNFRVQLFEDPTVDKEVEIRKKVLKIYNKREEDFPSLREYNDFLEEVEEIVFNLTNNVDLDNTKKKMEIYQKENKDVIQKNKLKLTREQEELEEALEVERQENEQRRLFIQKEEQLQQILKRKNKQAFLDELESSDLPVALLLAQHKDRSTQLEMQLEKPKPVKPVTFSTGIKMGQHISLAPIHKLEEALYEYQPLQIETYGPHVPELEMLGRLGYLNHVRAASPQDLAGGYTSSLACHRALQDAFSGLFWQPS
Take B2: the binding result with TFIIH subunit XPB is “binds”.
